From patent US20160331821A1 (AGENUS, published 2016)
One block for each binder: values may come before it. Square brackets hold non-standard residues; d marks the D form. Ends that are not written are not given here. pS = N[C@@H](COP(=O)(O)O)C(=O)O

Columns and labels:
[1] = target: T1, recombinant human Hsc70 (Genbank Accession No. P11142.1) (human, UniProt P11142 1-646, limits assumed); assay: size exclusion chromatography after incubating peptide with Hsc70 in PBS, 37 C, 1 h, 4:1 molar excess peptide:Hsc70
T1 construct: also called rhHsc70; rh-Hsc70
T1 sequence (P11142 whole entry, one chain of several): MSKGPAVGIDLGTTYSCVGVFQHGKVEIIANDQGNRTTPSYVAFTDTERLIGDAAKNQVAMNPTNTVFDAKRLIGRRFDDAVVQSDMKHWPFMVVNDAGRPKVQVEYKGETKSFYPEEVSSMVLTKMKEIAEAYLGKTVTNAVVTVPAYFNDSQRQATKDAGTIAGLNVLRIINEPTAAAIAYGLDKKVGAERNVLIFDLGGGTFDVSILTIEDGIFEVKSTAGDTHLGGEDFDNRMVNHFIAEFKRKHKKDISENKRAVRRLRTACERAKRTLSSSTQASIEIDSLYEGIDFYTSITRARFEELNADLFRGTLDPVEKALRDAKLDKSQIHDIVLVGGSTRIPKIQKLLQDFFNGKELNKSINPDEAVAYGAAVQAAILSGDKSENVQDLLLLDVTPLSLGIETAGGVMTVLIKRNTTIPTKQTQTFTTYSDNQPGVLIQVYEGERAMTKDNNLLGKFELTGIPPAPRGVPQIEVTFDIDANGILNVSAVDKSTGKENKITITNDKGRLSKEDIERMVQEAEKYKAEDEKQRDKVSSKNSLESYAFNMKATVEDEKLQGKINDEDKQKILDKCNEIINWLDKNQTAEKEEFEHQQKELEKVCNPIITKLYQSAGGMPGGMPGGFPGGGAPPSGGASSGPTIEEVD
Experimental: Four peptides (Table 9) containing a phosphorylated serine residue were synthesized to 95% purity (GenScript, Cambridge, Mass.). […] These peptides were individually incubated with Hsc70 in PBS at 37° C. for 1 hour at a 4:1 molar excess (peptide:Hsc70) to form non-covalent Hsc70-peptide complexes. After incubation, the complexes were analyzed by SEC to quantify the proportion of Hsc70 molecules loaded with peptide.

[2] = target: T2, recombinant human Hsc70 (Genbank Accession No. P11142.1) (Biomay AG) (human, UniProt P11142 1-646, limits assumed); assay: size exclusion chromatography; Hsc70:peptide molar ratio 1:2, same result at 1:5
T2 construct: Resolves on SEC as a monomeric and an oligomeric form; also called rhHsc70; rh-Hsc70
T2 sequence (P11142 whole entry, one chain of several): as above
Experimental: Standard size exclusion chromatography was carried out using 7 μM of recombinant human Hsc70 (Genbank Accession No. P11142.1) (Biomay AG) in a reaction buffer containing 20 mM HEPES and 200 mM KCL in a final volume of 50 μl. Reactions were incubated at 37° C. for 1 or 2 hours and centrifuged 2 min at 13000 RPM. Reaction products (10 μg) were resolved on a TSKgel SuperSW3000, 4 μm particle size, 25 nm pore size gel filtration chromatography column (Tosoh Bioscience). […] The percentage of Hsc70 complexed with peptide in each reaction mixture was calculated by measuring the surface area of the appropriate peak.
The comparative effect of placing the high affinity Hsc70 binding sequence at the N- and C-terminus of the ovalbumin peptide, linked via the FFRK (SEQ ID NO:447) linker in both cases, was also tested. […] The sequence of the test peptide with the C-terminal high affinity Hsc70 binding sequence was […] (SEQ ID NO:449), and the sequence of the test peptide with N-terminal high affinity Hsc70 binding sequence was […] (SEQ ID NO:450).

B2: RVA{pSer}PTSGVFFRKNLLRLTG (IRS-2 antigen phosphopeptide epitope with C-terminal FFRK linker and high affinity HSP binding sequence) (peptide)
peptide: RVA[pS]PTSGVFFRKNLLRLTG
Percentage of Hsc70 loaded with peptide [1]: 75%

B3: GLLG{pSer}PVRAFFRKNLLRLTG (CDC25 antigen phosphopeptide epitope with C-terminal FFRK linker and high affinity HSP binding sequence) (peptide)
peptide: GLLG[pS]PVRAFFRKNLLRLTG
Percentage of Hsc70 loaded with peptide [1]: 74%

B5: NLLRLTGFFRKGLLG{pSer}PVRA (CDC25 antigen phosphopeptide epitope with N-terminal high affinity HSP binding sequence and FFRK linker) (peptide)
peptide: NLLRLTGFFRKGLLG[pS]PVRA
Percentage of Hsc70 loaded with peptide [1]: 41%

Results, then the binder that gave them:

Percentage of Hsc70 loaded with peptide [1]: 34%
B1: NLLRLTGFFRKRVA{pSer}PTSGV (IRS-2 antigen phosphopeptide epitope with N-terminal high affinity HSP binding sequence and FFRK linker) (peptide)
peptide: NLLRLTGFFRKRVA[pS]PTSGV

binding result [2]: binds
B4: chicken ovalbumin peptide SIINFEKL fused at its N-terminus via the linker FFRK to the high affinity Hsc70 binding sequence NLLRLTG (NLLRLTGFFRKSIINFEKL) (peptide)
peptide: NLLRLTGFFRKSIINFEKL
